How the values were obtained:
[1] = molecular target: T1, CD25 (R&D systems cat. #223-2A/CF) (UniProt P01589 22-213, limits assumed); assay: SPR (Biacore), single variant in H1L1 background
T1 construct: Bought soluble protein
T1 sequence (looked up): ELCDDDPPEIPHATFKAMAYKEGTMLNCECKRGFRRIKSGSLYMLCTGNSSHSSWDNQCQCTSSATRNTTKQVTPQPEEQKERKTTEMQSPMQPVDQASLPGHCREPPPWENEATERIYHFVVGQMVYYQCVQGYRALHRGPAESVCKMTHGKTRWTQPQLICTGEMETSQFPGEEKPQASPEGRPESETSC
Protocol: (§1) Binding was measured by injection of two-fold serial dilutions of CD25 (0 nM to 50 nM; R&D systems) in buffer at 25° C. with a flow rate of 25-30 μL/min for 2 min followed by a dissociation phase of 4-5 min. Association rates (kₒₙ) and dissociation rates (koff) were calculated using a simple one-to-one Langmuir binding model (BIAcore Evaluation Software version 3.2). The equilibrium dissociation constant (Kd) was calculated as the ratio of koff/kₒₙ).

[2] = molecular target: T1, CD25 (R&D systems cat. #223-2A/CF); assay: Biacore (SPR); antibody captured on Protein A, CD25 injected
Protocol: as §1

B1: anti-CD25 H1L1 single variant VH I69M (antibody, IgG1, V domains shown)
VH: QVQLVQSGAEVKKPGASVKVSCKASGYTFTSYRMHWVRQAPGQGLEWMGYINPSTGYTEYNQKFQGRVTMTADKSISTAYMELSRLRSDDTAVYYCARGGGVFDYWGQGTLVTVSS
VL: QIVLTQSPATLSLSPGERATLSCRASSSISYMHWFQQKPGQSPQLLIYTTSNLASGVPARFSGSGSGTDYTLTISSLQPEDFAVYYCHQRSTYPLTFGSGTKLEIK
notes: IgG1 format
fold increase in affinity against anti-CD25 H1L1 [1]: 2.4 fold | Kd [2]: 130 pM | koff [2]: 0.00026 s⁻¹ | kon [2]: 2e+06 M⁻¹ s⁻¹
